Target: Murine PD-1 fusion protein (mouse) (UniProt Q02242)
Assay: SPR (BIAcore 3000), murine PD-1 fusion immobilized on CM5 chip, antibody 25 nM to 500 nM in flow

Murine PD-1 fusion protein (mouse), sequence (Q02242 25-167): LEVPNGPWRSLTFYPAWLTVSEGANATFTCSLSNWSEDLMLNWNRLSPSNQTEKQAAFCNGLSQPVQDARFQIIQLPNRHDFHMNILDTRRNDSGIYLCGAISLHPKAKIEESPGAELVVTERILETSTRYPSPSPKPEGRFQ

B1: Anti-mouse PD1 antibody J43 (antibody, from another filing, V domains shown)
VH: EVRLLESGGGLVKPEGSLKLSCVASGFTFSDYFMSWVRQAPGKGLEWVAHIYTKSYNYATYYSGSVKGRFTISRDDSRSMVYLQMNNLRTEDTATYYCTRDGSGYPSLDFWGQGTQVTVSS
VL: YELTQPPSASVNVGETVKITCSGDQLPKYFADWFHQRSDQTILQVIYDDNKRPSGIPERISGSSSGTTATLTIRDVRAEDEGDYYCFSGYVDSDSKLYVFGSGTQLTVLG
What does the source list for B1?
Ka: 2.6e+06 M⁻¹; Kd: 380 nM

Source: patent US20040213795A1
